Sequences and labels used below:
T1: Tsg101 UEV-N16 complex (UEV domain with N16 covalently attached at C73) (human, UniProt Q99816 2-145, C73 covalently attached (disulfide linkage) to the activated sulfenamide form of N16 (tenatoprazole))
T1 construct: non-native glycine at the N-terminus (residue 1) left by TEV protease cleavage; Tsg101, ubiquitin E2 variant (UEV) domain, residues 2-145, as m1; same polypeptide as m1; also called N16-Tsg101 UEV complex; Tsg101-N16; source: E. coli Rosetta 2 (DE3) pLysS, purified as m1, then incubated with N16 in a 10:1 ratio (N16 excess); not shown: His6, N-terminal, cleaved
T1 sequence: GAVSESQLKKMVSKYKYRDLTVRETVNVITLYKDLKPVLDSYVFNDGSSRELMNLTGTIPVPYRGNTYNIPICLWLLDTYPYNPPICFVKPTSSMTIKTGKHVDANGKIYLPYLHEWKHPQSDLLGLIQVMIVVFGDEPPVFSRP

B1: Tsg101 UEV domain (residues 2–145) (domain or fragment, human)
chain: T1 sequence
notes: non-native glycine at the N-terminus (residue 1) left by TEV protease cleavage; Tsg101, ubiquitin E2 variant (UEV) domain, residues 2-145; the word human is printed for the full-length Tsg101 plasmids, not for this construct itself; also called Tsg101^2–145; 15N-Tsg101 UEV; not shown: His6, N-terminal, cleaved
B2: PTAP peptide (Ace-NFLQSRPEPTAPPEE-CONH2) (peptide)
peptide: Ac-NFLQSRPEPTAPPEE-NH2
notes: also called Gag PTAP peptide; source: synthetic peptide (Bio-Synthesis, Texas)

What all share (conditions): both partners purified
One test has as its target T2, wild-type ubiquitin (UniProt P0CG48 1-76).
T2 construct: ubiquitin, wild type, unlabeled, encoded in pET-21a; source: E. coli BL21-Gold(DE3), purified (acid precipitation, HiTrap SP ion exchange, S75 gel filtration)
The test can be described thus: NMR titration; HSQC spectra of 15N-labelled Tsg101 UEV or UEV-N16 (200 μM) at 1:0, 1:0.5 and 1:1 ratio to unlabeled ubiquitin; 20 mM potassium phosphate, 50 mM NaCl, pH 5.8.

Test [1] has as its target B1. In words: NMR titration; chemical shift perturbations of 15N-labelled Tsg101 UEV or UEV-N16 (200 μM) on addition of PTAP peptide at a final 1:1 ratio; 20 mM potassium phosphate, 50 mM NaCl, pH 5.8.
Test [2] deals with T1, Tsg101 UEV-N16 complex (UEV domain with …). Described as above.

The text below walks through data of PMC5680296, “Tsg101 chaperone function revealed by HIV-1 assembly inhibitors” (Nature Communications, 2017).

B1: the binding result with wild-type ubiquitin was “binds”.

Turning to B2, the binding result in test [1] and in test [2] was “binds” each time.
